The values below are quoted from earlier work in PMC4080432.

For series [1], the target named is NapB (Escherichia coli) (UniProt P0ABL3).
Series [2] shares this target. This is another data set of the same source.

Read-outs that look alike come from different tables or passages of the source.

Sequence of UniProt P0ABL3 (P0ABL3 28-149): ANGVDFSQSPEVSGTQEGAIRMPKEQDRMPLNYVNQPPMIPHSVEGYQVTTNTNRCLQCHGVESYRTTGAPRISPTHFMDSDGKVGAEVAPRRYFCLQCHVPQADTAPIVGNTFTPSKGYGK

Regarding NapA (from UniProt P33937), the Kd in the series with NapB (Escherichia coli) [1] was 32 µM; in the series with NapB (Escherichia coli) [2], 15 µM.

One may read the Kd as the free concentration of one partner at which half of the binding sites on the other are occupied at equilibrium, for simple one-to-one binding.
